In the supplement of paper PMC12042874:
± gives the uncertainty stated by the source.

Experiment: amyloid nucleation score (Sup35N fusion, yeast selection) (log enrichment); library NNK3; higher = more nucleation; inactive = no reads after selection
In short: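 Using DiMSum, nucleation scores were taken as the log enrichment of output over input reads, centred on the mode score of non-aggregating sequences. The input and output reads came from Illumina sequencing of plasmid inserts, with sequences under 100 input reads excluded. The yeast were psi-negative, expressed Sup35N fused to peptides of 20 random codons, were induced with 100 μM copper sulfate for 24 hours, and were grown 7 days at 30°C on medium lacking adenine and uracil.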

Row | Substance | amyloid nucleation score
1 | HITVNRSKGFDGSRTAPFQM | inactive
2 | HIVLVSRLHITAGGRF | -0.179 ± 0.65
3 | HIWAHAFISLVLWLSPLSVS | inactive
4 | HKFDNKIRPTWYVVLPIFNA | inactive
5 | HKITVNLS | inactive
6 | HKRIFGCVISVPFTSCFT | inactive
7 | HKRLMFDMYHPIWMFYCSAC | inactive
8 | HKWAI | inactive
9 | HLHVVHKIAS | -0.471 ± 0.82
10 | HLLTLTI | 0.501 ± 0.26
11 | HLSLAVEFA | inactive
12 | HLTHFQQILRFNKAETCVRT | inactive
13 | HLTHVYVADSVGLKLFVYHP | 1.9 ± 0.072
14 | HLTLSAQRATSVVCERLQIS | inactive
15 | HLWTFEITSTGYL | inactive
16 | HMVSTDVTENLWFRQ | inactive
17 | HNFYKGFDYHLECMGADTGE | inactive
18 | HNSACFANSDEVSVASRAMT | 2.45 ± 0.08
19 | HNSRN | 0.186 ± 0.21
20 | HNVCTKAKTRMYRVERS | inactive
21 | HNVFVFCNMAVIELQVNDWL | 3.26 ± 0.063
22 | HPMLFSFYVKGRVFLSRV | inactive
23 | HPSVVLHGEATCTASRVLQV | inactive
24 | HQPGSRLI | inactive

Row | Substance | amyloid nucleation score
25 | HREPTNSNRMEIELRKSVWR | inactive
26 | HRLVGTNISSTR | inactive
27 | HRMCVRRFRVFRESVEEVHF | inactive
28 | HRSINCWAYVRL | inactive
29 | HRSISLRLYWNIHVKCFLTY | inactive
30 | HRVYLPGRWRLMISLSC | -0.201 ± 1.3
31 | HRWNMSWFGYFNLRLSVIET | inactive
32 | HRYVKALRFF | inactive
33 | HSDCDRTVTSGVELDSYGWT | inactive
34 | HSIIRVSFLDMVCAGNSIVR | -0.504 ± 1.9
35 | HSIIVEWKC | inactive
36 | HSLIVYHLS | inactive
37 | HSMLDFFST | inactive
38 | HSRVWGKYSGSLPGKM | inactive
39 | HSRWMAFPWMLGPLLLNRNL | inactive
40 | HSSSYCSSYKERSIPWSW | 0.93 ± 0.12
41 | HSTLSLMHDSYRACSWKCNA | inactive
42 | HTYDCAAFCPAGAGNR | inactive
43 | HVDTSPSYIPPGIKLVRQRM | -0.528 ± 0.36
44 | HVFIEFGKL | -0.259 ± 0.42
45 | HVFNGY | inactive
46 | HVFRLCMGKTELAYFY | inactive
47 | HVGAIMLLLLLTSERLMTLD | inactive
48 | HVLYRRSSPYCVRWCNITER | inactive

Row | Substance | amyloid nucleation score
49 | HVSLNLDSQNCCMSECFA | inactive
50 | HVTQLNGVAYSCEI | inactive
51 | HVVFNIIFWYSGRIGLSDIT | 1.94 ± 0.084
52 | HVVHYDMFHDGLSLWDQEAR | inactive
53 | HWFTLSKYGR | inactive
54 | HYADSVESRSALLWLVSFLF | inactive
55 | HYFGKT | inactive
56 | HYKVPWF | inactive
57 | HYMRMQTSLANRYIARNVAR | inactive
58 | IALSTDSMPRYLEALRACGC | inactive
59 | IANCRIS | 1.34 ± 0.094
60 | IAQIFLACRTVT | inactive
61 | IARATFFINQR | 1.43 ± 0.15
62 | IARFGVKSVGWSFAENMSST | inactive
63 | IATIFGVHFRQNDDWIVALY | inactive
64 | IAWRQAGDFITLNLSIWMRL | inactive
65 | ICEPADQV | inactive
66 | ICFFRGAARMNCLGYQGITR | inactive
67 | ICFGDKVRIKFFVPSIFSWY | inactive
68 | ICFVSCKLFFVDSLCFCFAG | inactive
69 | ICILADEYLMCGYGYFHFDY | inactive
70 | ICLVEISDGAFRKR | inactive
71 | ICMSMNMSADPGMPAIMFNY | inactive
72 | ICRLVLIWVPRSSGGVSSSR | inactive

Row | Substance | amyloid nucleation score
73 | ICSFFGNSPVRLQVYFLWSW | inactive
74 | ICSFRTWA | 0.978 ± 0.1
75 | ICSMYTTVSRNTEL | inactive
76 | ICTVNMTNQSEC | inactive
77 | ICYRWY | 0.192 ± 0.19
78 | IDALIYG | inactive
79 | IDARRFQGFNISSYMN | 0.372 ± 0.28
80 | IDCGGFDDIRVVSGDDEKMW | inactive
81 | IDDEIANSSFQVWLKGGFLV | inactive
82 | IDHKCCNNTVS | inactive
83 | IDILNG | 0.152 ± 0.71
84 | IDLKY | inactive
85 | IDMILC | inactive
86 | IDQCNIVGTRKNGHAL | inactive
87 | IDTAFRSYCYDFDLANDLMG | inactive
88 | IDTVNFKVLHVGI | inactive
89 | IDYRMYYY | inactive
90 | IEFGGNN | 1.68 ± 0.13
91 | IEFGVCKVRNVVNDVRFRRG | inactive
92 | IEFRLWYG | inactive
93 | IELLCGLDIT | inactive
94 | IEQRLRLKSLSYFFINDVKI | inactive
95 | IEREMCTGNLVPLNAWKRFH | inactive
96 | IESKAWISVAGARFYSLGVG | inactive

Row | Substance | amyloid nucleation score
97 | IEWVRNTLSISLIERYRLNG | inactive
98 | IFCST | inactive
99 | IFGWLVDYLSFRVYKEDKGV | inactive
100 | IFHGSLYGFHYEPCLQAWAA | inactive
101 | IFIQLSDLMQSKVAHECGWC | inactive
102 | IFLDNFFKSFFGRRGSKS | 0.662 ± 0.13
103 | IFLGYRNYDYFSFTVLVE | inactive
104 | IFLYNVLIGLCLDNPYKLFG | inactive
105 | IFQRKRRTYLS | inactive
106 | IFSLYMGASCMWLMIVGWLD | inactive
107 | IFSVFLLTMLEQRQKAHSLM | inactive
108 | IFTDLVA | inactive
109 | IFTTNCYISNFYNGWWDV | 2.91 ± 0.078
110 | IFYVWQLLYYGEQRGGS | 1.63 ± 0.088
111 | IGGRKALAALSVYHNVMRCL | inactive
112 | IGITLFENHKFGLGLANVPG | inactive
113 | IGMKFCAYVLLSYKAITMFG | inactive
114 | IGNCFMTMGRLVSRQDSVPM | -0.427 ± 1
115 | IGRLMA | inactive
116 | IGSFVKDKLSRRIGTGRMEI | inactive
117 | IGYLDFVHSIENVVYNWGAS | inactive
118 | IGYTRLLFLMDVTVGIRVGW | inactive
119 | IHFMCMWVSNWYVLLVLKE | inactive
120 | IHGHC | inactive
